For two substances, Kd results are on record in paper PMC7864079, “Molecular basis for histone H3 “K4me3-K9me3/2” methylation pattern readout by Spindlin1” (The Journal of Biological Chemistry, 2021).

In this assay the target is double Tudor domains of JMJD2A. Description: ITC; reader domains (BPTF, RAG2, ZCWPW1, SGF29, JMJD2A) titrated with H3 peptides; 25°C; One Set of Binding Sites model.

For “H3_(1–20) K4me3 peptide (from UniProt P68431 2-21)”, the Kd amounted to 600 nM. In the case of “H3_(1–20) “K4me3-K9me3” peptide (from UniProt P68431 2-21)” it was 900 nM.

What is called Kd is the constant that tells how readily two partners part at equilibrium.
